In patent publication US20170190749A1:
Substitutions are numbered along the chain they refer to. Each block holds one binder with its values, some of them ahead of it.

Assays:
[1] = target: T1, PhoCle0.1 large fragment after photocleavage (remainder of the protein); assay: spectroscopic and SDS-PAGE analyses of the protein before and after illumination
T1 chain: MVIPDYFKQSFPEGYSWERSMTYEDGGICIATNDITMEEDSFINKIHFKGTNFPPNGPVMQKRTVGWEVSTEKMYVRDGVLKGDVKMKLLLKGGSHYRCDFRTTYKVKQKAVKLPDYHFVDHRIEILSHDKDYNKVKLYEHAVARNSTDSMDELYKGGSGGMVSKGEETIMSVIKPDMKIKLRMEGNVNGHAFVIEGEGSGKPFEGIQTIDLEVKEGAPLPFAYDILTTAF

[2] = target: T2, PhoCle0.3 large fragment after photocleavage (~20 kDa remainder of the PhoCle domain); assay: decay of red fluorescence/absorbance following photocleavage
T2 chain: T1 chain with F101Y, M171T, I180N

t0.5 of spontaneous dissociation after photocleavage [1]: 500 s
B1: PhoCle0.1 small chromophore-containing peptide fragment after photocleavage (peptide)
peptide: HYGNRVFTKYPR
modifications: not checked

t0.5 of peptide dissociation after photocleavage [2]: 120 s
B2: PhoCle0.3 small chromophore-containing peptide fragment after photocleavage (peptide)
peptide: HYGNRVFTKYPR
modifications: not checked
